Experimental data reported in patent publication US20220153844A1 (INVENRA, published 2022).
One block for each binder: values may come before it.

Experiments:
[1] = target: T1, huCTLA4 (biotinylated human CTLA4 for BLI) (human, UniProt P16410 36-161, limits assumed, biotinylated); experiment: BLI steady state analysis; biotinylated antigen on streptavidin sensor, bispecific 2 µM to 31.25 nM
T1 construct: also called Target 2

[2] = target: T2, muCD25 transiently expressed on Expi293 cells (Expi293-muCD25) (mouse, UniProt P01590 22-268); experiment: flow cytometry, biotinylated mouse IL-2 on Expi293 muCD25 cells, streptavidin-PE
T2 construct: whole, on cells; also called murine CD25; single positive CD25+ cells
T2 sequence (looked up): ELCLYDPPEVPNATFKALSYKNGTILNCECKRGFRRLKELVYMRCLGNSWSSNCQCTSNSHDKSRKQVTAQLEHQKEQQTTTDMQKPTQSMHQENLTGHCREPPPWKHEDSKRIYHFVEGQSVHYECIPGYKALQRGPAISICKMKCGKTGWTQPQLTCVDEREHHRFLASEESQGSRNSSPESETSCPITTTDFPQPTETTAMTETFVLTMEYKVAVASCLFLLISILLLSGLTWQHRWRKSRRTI

[3] = target: T3, mouse CTLA4 (target of muSNIPER and anti-muCTLA4) (mouse, UniProt P09793 36-161, limits assumed, biotinylated in the blocking assay); experiment: BLI, biotinylated mouse CTLA4 (B-mTarget2) on streptavidin sensor, then antibody or CD86 ligand
T3 construct: also called Target 2

[4] = target: T4, mouse CD25 + CTLA4 together (Table 29) (mouse, UniProt P01590 22-236; P09793 36-161, limits assumed); experiment: bivalent affinity to both CD25 and CTLA4, summary in Table 29; bivalent, CD25 + CTLA4 together
T4 construct: the format is not described

[5] = target: T3, mouse CTLA4 (target of muSNIPER and …); experiment: monovalent affinity, summary in Table 29 (text: biolayer interferometry; data not shown); monovalent, CTLA4 alone
[6] = target: T5, mouse CD25 (target of muSNIPER in Table 29) (mouse, UniProt P01590 22-236, limits assumed); experiment: monovalent affinity, summary in Table 29 (text: biolayer interferometry; data not shown); monovalent, CD25 alone
T5 construct: also called muCD25
T5 sequence (looked up): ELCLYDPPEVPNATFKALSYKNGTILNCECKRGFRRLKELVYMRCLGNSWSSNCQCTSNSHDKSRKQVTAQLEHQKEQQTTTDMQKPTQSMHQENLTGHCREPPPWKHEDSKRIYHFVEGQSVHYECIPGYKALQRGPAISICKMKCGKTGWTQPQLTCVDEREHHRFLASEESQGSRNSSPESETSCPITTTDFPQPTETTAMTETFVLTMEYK

[7] = target: T6, CTLA4 (antigen of Examples 10 and 13) (UniProt P16410 36-161, limits assumed); experiment: BLI (Octet); antigen immobilised, B-Body as analyte
T6 construct: Immobilised antigen in the Octet assay
From the text: In each instance, the antigen is immobilized and the B-Body is the analyte.

T3 sequence (P09793 36-161 limits assumed): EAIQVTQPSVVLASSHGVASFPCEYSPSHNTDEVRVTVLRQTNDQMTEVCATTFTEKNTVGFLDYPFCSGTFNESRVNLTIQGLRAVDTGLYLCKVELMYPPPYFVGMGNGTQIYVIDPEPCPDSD
T4 sequence (P09793 36-161 limits assumed, one chain of several): as the sequence (P09793 36-161 limits assumed) above
T6 sequence (P16410 36-161 limits assumed): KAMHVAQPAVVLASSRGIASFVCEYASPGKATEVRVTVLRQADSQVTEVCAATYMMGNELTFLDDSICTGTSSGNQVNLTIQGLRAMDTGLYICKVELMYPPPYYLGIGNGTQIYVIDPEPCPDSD
T1 sequence (P16410 36-161 limits assumed): as above

B1: BC1 1×1 B-Body huSNIPER 19×8 binding molecule (bispecific antibody)
chain 1: not shown
chain 2: EVQLVESGGGLVQPGGSLRLSCAASGFTFSGYWIHWVRQAPGKGLEWVAAITSRDSYTYYADSVKGRFTISADTSKNTAYLQMNSLRAEDTAVYYCARGSYLGSAFDYWGQGTLVTVSSASPREPQVYTDPPSRDELTKNQVSLTCLVKGFYPSDIAVEWESNGQPENNYKTTPPVLDSDGSFFLYSKLTVDKSRWQQGNVFSCSVMHEALHNHYTQKSLSLSGEC
chain 3: SDIQMTQSPSSLSASVGDRVTITCRASQSVSSAVAWYQQKPGKAPKLLIYSASSLYSGVPSRFSGSRSGTDFTLTISSLQPEDFATYYCQQYSSQPATFGQGTKVEIKRTVAAPSVFIFPPSDEQLKSGTASVVCLLNNFYPREAKVQWKVDNALQSGNSQESVTEQDSKDSTYSLSSTLTLSKADYEKHKVYACEVTHQGLSSPVTKSFNRGECDKTHTCPPCPAPELLGGPSVFLFPPKPKDTLMISRTPEVTCVVVDVSHEDPEVKFNWYVDGVEVHNAKTKPREEQYNSTYRVVSVLTVLHQDWLNGKEYKCKVSNKALPAPIEKTISKAKGQPREPQVCTLPPSREEMTKNQVSLSCAVKGFYPSDIAVEWESNGQPENNYKTTPPVLDSDGSFFLVSKLTVDKSRWQQGNVFSCSVMHEALHNHYTQKSLSLSPGK
chain 4: EVQLVESGGGLVQPGGSLRLSCAASGFTFSSYYIHWVRQAPGKGLEWVAKIQPKGGYTYYADSVKGRFTISADTSKNTAYLQMNSLRAEDTAVYYCARSYYYRPHAFDYWGQGTLVTVSSASTKGPSVFPLAPSSKSTSGGTAALGCLVKDYFPEPVTVSWNSGALTSGVHTFPAVLQSSGLYSLSSVVTVPSSSLGTQTYICNVNHKPSNTKVDKKVEPPKSC
Kd [1]: 19 nM

B2: biotinylated mouse recombinant IL-2 ligand (ligand, UniProt P04351 21-169, looked up)
chain: APTSSSTSSSTAEAQQQQQQQQQQQQHLEQLLMDLQELLSRMENYRNLKLPRMLTFKFYLPKQATELKDLQCLEDELGPLRHVLDLTQSKSFQLEDAENFISNIRVTVVKLKGSDNTFECQFDDESATVVDFLRRWIAFCQSIISTSPQ
modifications: biotinylated
binding result [2]: binds

B4: Mouse Surrogate SNIPER antibody (muSNIPER) (bispecific antibody)
chain 1: not shown
chain 2: EVQLVESGGGLVQPGGSLRLSCAASGFTFSSYYIHWVRQAPGKGLEWVASISSYADYTDYADSVKGRFTISADTSKNTAYLQMNSLRAEDTAVYYCARQSYYGLDYWGQGTLVTVSSASPREPQVYTDPPSRDELTKNQVSLTCLVKGFYPSDIAVEWESNGQPENNYKTTPPVLDSDGSFFLYSKLTVDKSRWQQGNVFSCSVMHEALHNHYTQKSLSLSGEC
chain 3: DIQMTQSPSSLSASVGDRVTITCRASQSVSSAVAWYQQKPGKAPKLLIYSASSLYSGVPSRFSGSRSGTDFTLTISSLQPEDFATYYCQQWYTSPLTFGQGTKVEIKRTVAAPSVFIFPPSDEQLKSGTASVVCLLNNFYPREAKVQWKVDNALQSGNSQESVTEQDSKDSTYSLSSTLTLSKADYEKHKVYACEVTHQGLSSPVTKSFNRGECDKTHTCPPCPAPELLGGPSVFLFPPKPKDTLMISRTPEVTCVVVDVSHEDPEVKFNWYVDGVEVHNAKTKPREEQYNSTYRVVSVLTVLHQDWLNGKEYKCKVSNKALPAPIEKTISKAKGQPREPQVCTLPPSREEMTKNQVSLSCAVKGFYPSDIAVEWESNGQPENNYKTTPPVLDSDGSFFLVSKLTVDKSRWQQGNVFSCSVMHEALHNHYTQKSLSLSPGK
chain 4: EVQLVESGGGLVQPGGSLRLSCAASGFTFRQYFIHWVRQAPGKGLEWVAAIHPDSDFTYYADSVKGRFTISADTSKNTAYLQMNSLRAEDTAVYYCARGGVAIESGYALDYWGQGTLVTVSSASTKGPSVFPLAPSSKSTSGGTAALGCLVKDYFPEPVTVSWNSGALTSGVHTFPAVLQSSGLYSLSSVVTVPSSSLGTQTYICNVNHKPSNTKVDKKVEPPKSC
notes: Chains 1 and 2 form the CTLA4 arm, chains 3 and 4 the CD25 arm; BC1 scaffold; also called mSNIPER; muSINPER
Kd [4]: < 5 nM
Kd [5]: > 100 nM
Kd [6]: > 300 nM

Now from value to binder:

binding result [3]: binds
B3: anti-muCTLA4, parental bivalent monospecific monoclonal antibody (antibody, IgG1, V domains shown)
VH: EVQLVESGGGLVQPGGSLRLSCAASGFTFSSYYIHWVRQAPGKGLEWVASISSYADYTDYADSVKGRFTISADTSKNTAYLQMNSLRAEDTAVYYCARQSYYGLDYWGQGTLVTVSS
VL: DIQMTQSPSSLSASVGDRVTITCRASQSVSSAVAWYQQKPGKAPKLLIYSASSLYSGVPSRFSGSRSGTDFTLTISSLQPEDFATYYCQQLSRGPSTFGQGTKVEIK
notes: Parent antibodies of the discovery campaign are in a human full-length IgG1 format; copies: 2 + 2

binding result [7]: no binding
B5: bivalent bispecific B-Body “BC1” (bispecific antibody)
chain 1: not shown
chain 2: EVQLVESGGGLVQPGGSLRLSCAASGFTFSDYDIHWVRQAPGKGLEWVGDITPYDGTTNYADSVKGRFTISADTSKNTAYLQMNSLRAEDTAVYYCARLVGEIATGFDYWGQGTLVTVSSASPREPQVYTDPPSRDELTKNQVSLTCLVKGFYPSDIAVEWESNGQPENNYKTTPPVLDSDGSFFLYSKLTVDKSRWQQGNVFSCSVMHEALHNHYTQKSLSLSGEC
chain 3: not shown
chain 4: QVQLVESGGGVVQPGRSLRLDCKASGITFSNSGMHWVRQAPGKGLEWVAVIWYDGSKRYYADSVKGRFTISRDNSKNTLFLQMNSLRAEDTAVYYCATNDDYWGQGTLVTVSSASTKGPSVFPLAPSSKSTSGGTAALGCLVKDYFPEPVTVSWNSGALTSGVHTFPAVLQSSGLYSLSSVVTVPSSSLGTQTYICNVNHKPSNTKVDKKVEPPKSC
notes: A:F site specific for Antigen A, H:L site (nivolumab) specific for human PD1
